How the values were obtained:
Type in all cases: biochemical
[^3H]dUMP-labelled DNA [1] = Release of uracil from ds or ss [3H]dUMP-labelled DNA; conditions: 2 μM, 10 min, 37° C.; for U-ds, pmol excised per min per mg protein: double-stranded uracil DNA, 0 = below detection limit (10 pmol per mg protein per min); for U-ss, pmol excised per min per mg protein: single-stranded uracil DNA, 0 = below detection limit
Protocol: (§1) To test enzymatic substrate specificities, 250 ng purified human “wild type” UDG (UNGΔ84), UNGΔ84Tyr147Ala or UNGΔ84Asn204Asp, were mixed with 200 ng ds- or ss-[^3H]cytosine-labelled DNA (150 mCi/mmol), or ds- or ss-[^3H]thymine-labelled DNA (100 mCi/mmol) in 10 mM NaCl, 20 mM Tris-HCl (pH 7.5), 1 mM EDTA, 1 mM dithiothreitol and 0.5 mg/ml bovine serum albumin (final concentrations) in 20 μl separate reactions. The final concentrations of the [^3H]cytosine-DNA (C) and [^3H]thymine-DNA (T) substrates were 6.5 μM and 10 μM, respectively. Release of radioactivity as a function of time was measured at 37° C. These conditions are later referred to as standard conditions. Substrate synthesis and processing of samples for scintillation counting were as described in Krokan and Wittwer (1981) Nucl. Acids Res., 9: 2599-2613. Single-stranded substrate was generated by boiling double-stranded substrate for 10 min, followed by rapid cooling on ice.
(§2) For measuring release of uracil from double-stranded (U-ds) or single-stranded (U-ss) DNA the various mutant enzymes (prepared as described in Example 1 and by analogous site-directed mutagenesis methods and identical expression and purification methods) were incubated with 200 ng ds- or ss-[^3H]dUMP-labelled DNA (500 mCi/mmol, 2 μM final concentration) in 20 μl separate reactions for 10 min under standard conditions as described in Example 1. For measuring release of [^3H]cytosine or [^3H]thymine, assays were performed as described in Example 1 using an incubation time of 10 min. Uracil inhibition was analysed by adding 5 mM uracil (final concentration) to a standard U-ds assay. 0 activity indicates activity below detection limit (10 pmol per mg protein per min) with 100 ng enzyme and 200 ng DNA substrate at standard conditions.

[2] = system: [^3H]cytosine-labelled DNA; assay: Release of [3H]cytosine from ds or ss labelled DNA; conditions: 6.5 μM, 10 min, 0 = below detection limit; for C-ds, pmol excised per min per mg protein: double-stranded cytosine DNA; for C-ss, pmol excised per min per mg protein: single-stranded cytosine DNA
Protocol: as §1, §2

[3] = system: [^3H]thymine-labelled DNA; assay: Release of [3H]thymine from ds or ss labelled DNA; conditions: 10 μM, 10 min, 0 = below detection limit; for T-ds, pmol excised per min per mg protein: double-stranded thymine DNA; for T-ss, pmol excised per min per mg protein: single-stranded thymine DNA
Protocol: as §1, §2

[^3H]dUMP-labelled DNA [4] = Uracil inhibition in standard U-ds assay; conditions: 5 mM uracil added to standard U-ds assay
Protocol: as §2

[^3H]dUMP-labelled DNA [5] = Kinetic parameters on uracil substrate; conditions: for Kcat: calculated from Vmax assuming Mr=25000
Protocol: The final concentrations of the [^3H]cytosine-DNA (C) and [^3H]thymine-DNA (T) substrates were 6.5 μM and 10 μM, respectively. Release of radioactivity as a function of time was measured at 37° C. These conditions are later referred to as standard conditions. Substrate synthesis and processing of samples for scintillation counting were as described in Krokan and Wittwer (1981) Nucl. Acids Res., 9: 2599-2613. Single-stranded substrate was generated by boiling double-stranded substrate for 10 min, followed by rapid cooling on ice.
The kinetic parameters were determined using six different substrate concentrations to obtain the Km and Vmax values. Duplicate samples were incubated for 20 min using standard assay buffer conditions and substrates as specified. Km and Vmax were calculated using the computer program Enzpack, version 3.0 after the method of Wilkinson (1961) Biochem. J., 80: 324-332.

Row | Molecule | U-ds, pmol excised per min per mg protein ([^3H]dUMP-labelled DNA [1]) | U-ss, pmol excised per min per mg protein ([^3H]dUMP-labelled DNA [1]) | C-ds, pmol excised per min per mg protein [2] | C-ss, pmol excised per min per mg protein [2] | T-ds, pmol excised per min per mg protein [3] | T-ss, pmol excised per min per mg protein [3] | Inhibition 5 mM Uracil ([^3H]dUMP-labelled DNA [4]) | Km ([^3H]dUMP-labelled DNA [5]; U-ds substrate) | Kcat ([^3H]dUMP-labelled DNA [5]; U-ds substrate) | Km ([^3H]dUMP-labelled DNA [5]; U-ss substrate) | Kcat ([^3H]dUMP-labelled DNA [5]; U-ss substrate)
1 | Tyr147Phe: human UDG (UNGΔ84) mutant with Tyr147 replaced by Phe (protein) MGVFCLGPWGLGRKLRTPGKGPLQLLSRLCGDHLQAIPAKKAPAGQEEPGTPPSSPLSAEQLDRIQRNKAAALLRLAARNVPVGFGESWKKHLSGEFGKPYFIKLMGFVAEERKHYTVYPPPHQVFTWTQMCDIKDVKVVILGQDPFHGPNQAHGLCFSVQRPVPPPPSLENIYKELSTDIEDFVHPGHGDLSGWAKQGVLLLNAVLTVRAHQANSHKERGWEQFTDAVVSWLNQNSNGLVFLLWGSYAQKKGSAIDRKRHHVLQTAHPSPLSVYRGFFGCRHFSKTNELLQKSGKKPIDWKEL | 3.2 × 10^7 pmol excised per min per mg protein | 6.3 × 10^7 pmol excised per min per mg protein | 0 pmol excised per min per mg protein | 0 pmol excised per min per mg protein | 0 pmol excised per min per mg protein | 0 pmol excised per min per mg protein | 50% | 0.16 µM | 20.42 s⁻¹ | 0.1 µM | 39.5 s⁻¹
2 | Gln144Leu: human UDG (UNGΔ84) mutant with Gln144 replaced by Leu (protein) MGVFCLGPWGLGRKLRTPGKGPLQLLSRLCGDHLQAIPAKKAPAGQEEPGTPPSSPLSAEQLDRIQRNKAAALLRLAARNVPVGFGESWKKHLSGEFGKPYFIKLMGFVAEERKHYTVYPPPHQVFTWTQMCDIKDVKVVILGLDPYHGPNQAHGLCFSVQRPVPPPPSLENIYKELSTDIEDFVHPGHGDLSGWAKQGVLLLNAVLTVRAHQANSHKERGWEQFTDAVVSWLNQNSNGLVFLLWGSYAQKKGSAIDRKRHHVLQTAHPSPLSVYRGFFGCRHFSKTNELLQKSGKKPIDWKEL | 3.4 × 10^4 pmol excised per min per mg protein | 4.8 × 10^4 pmol excised per min per mg protein | 0 pmol excised per min per mg protein | 0 pmol excised per min per mg protein | 0 pmol excised per min per mg protein | 0 pmol excised per min per mg protein | 25% | – | – | – | –
3 | Asp145Glu: human UDG (UNGΔ84) mutant with Asp145 replaced by Glu (protein) MGVFCLGPWGLGRKLRTPGKGPLQLLSRLCGDHLQAIPAKKAPAGQEEPGTPPSSPLSAEQLDRIQRNKAAALLRLAARNVPVGFGESWKKHLSGEFGKPYFIKLMGFVAEERKHYTVYPPPHQVFTWTQMCDIKDVKVVILGQEPYHGPNQAHGLCFSVQRPVPPPPSLENIYKELSTDIEDFVHPGHGDLSGWAKQGVLLLNAVLTVRAHQANSHKERGWEQFTDAVVSWLNQNSNGLVFLLWGSYAQKKGSAIDRKRHHVLQTAHPSPLSVYRGFFGCRHFSKTNELLQKSGKKPIDWKEL | 5.5 × 10^4 pmol excised per min per mg protein | 8.5 × 10^4 pmol excised per min per mg protein | 0 pmol excised per min per mg protein | 0 pmol excised per min per mg protein | 0 pmol excised per min per mg protein | 0 pmol excised per min per mg protein | 80% | – | – | – | –
4 | Ser169Ala: human UDG (UNGΔ84) mutant with Ser169 replaced by Ala (protein) MGVFCLGPWGLGRKLRTPGKGPLQLLSRLCGDHLQAIPAKKAPAGQEEPGTPPSSPLSAEQLDRIQRNKAAALLRLAARNVPVGFGESWKKHLSGEFGKPYFIKLMGFVAEERKHYTVYPPPHQVFTWTQMCDIKDVKVVILGQDPYHGPNQAHGLCFSVQRPVPPPPALENIYKELSTDIEDFVHPGHGDLSGWAKQGVLLLNAVLTVRAHQANSHKERGWEQFTDAVVSWLNQNSNGLVFLLWGSYAQKKGSAIDRKRHHVLQTAHPSPLSVYRGFFGCRHFSKTNELLQKSGKKPIDWKEL | 3.1 × 10^6 pmol excised per min per mg protein | 5.6 × 10^6 pmol excised per min per mg protein | 0 pmol excised per min per mg protein | 0 pmol excised per min per mg protein | 0 pmol excised per min per mg protein | 0 pmol excised per min per mg protein | 80% | – | – | – | –
5 | His268Leu: human UDG (UNGΔ84) mutant with His268 replaced by Leu (protein) MGVFCLGPWGLGRKLRTPGKGPLQLLSRLCGDHLQAIPAKKAPAGQEEPGTPPSSPLSAEQLDRIQRNKAAALLRLAARNVPVGFGESWKKHLSGEFGKPYFIKLMGFVAEERKHYTVYPPPHQVFTWTQMCDIKDVKVVILGQDPYHGPNQAHGLCFSVQRPVPPPPSLENIYKELSTDIEDFVHPGHGDLSGWAKQGVLLLNAVLTVRAHQANSHKERGWEQFTDAVVSWLNQNSNGLVFLLWGSYAQKKGSAIDRKRHHVLQTALPSPLSVYRGFFGCRHFSKTNELLQKSGKKPIDWKEL | 1.3 × 10^5 pmol excised per min per mg protein | 2.6 × 10^5 pmol excised per min per mg protein | 0 pmol excised per min per mg protein | 0 pmol excised per min per mg protein | 0 pmol excised per min per mg protein | 0 pmol excised per min per mg protein | 75% | – | – | – | –
6 | Asp145Asn: human UDG (UNGΔ84) mutant with Asp145 replaced by Asn (protein) MGVFCLGPWGLGRKLRTPGKGPLQLLSRLCGDHLQAIPAKKAPAGQEEPGTPPSSPLSAEQLDRIQRNKAAALLRLAARNVPVGFGESWKKHLSGEFGKPYFIKLMGFVAEERKHYTVYPPPHQVFTWTQMCDIKDVKVVILGQNPYHGPNQAHGLCFSVQRPVPPPPSLENIYKELSTDIEDFVHPGHGDLSGWAKQGVLLLNAVLTVRAHQANSHKERGWEQFTDAVVSWLNQNSNGLVFLLWGSYAQKKGSAIDRKRHHVLQTAHPSPLSVYRGFFGCRHFSKTNELLQKSGKKPIDWKEL | 1.4 × 10^4 pmol excised per min per mg protein | 1.1 × 10^4 pmol excised per min per mg protein | 0 pmol excised per min per mg protein | 0 pmol excised per min per mg protein | 0 pmol excised per min per mg protein | 0 pmol excised per min per mg protein | 80% | – | – | – | –

Source: patent publication US6713294B1, “DNA glycosylases and their use” (priority 1996, dated 2004)
